US20230190885A1, “PLACENTAL ALKALINE PHOSPHATASE TO PROMOTE SCAR-FREE HEALING OF ACNE VULGARIS AND OTHER INFLAMMATORY SKIN LESIONS CAUSED BY MICROBIAL INFECTIONS” (priority 2021, published 2023)

Key:
[1] = system: HaCaT cells; test: MTT assay, proliferation/viability of HaCaT keratinocytes; type: cell-based, human; conditions: 72 hours; for Viability of Cells (Absorption: A540) HaCaT cells: MTT, 200 nM PLAP or rPLAP, 100 µM ATP, mean ± S.D. of eight wells
Text: The immortalized human HaCaT keratinocyte cell line, isolated in 1988 [Boukamp, P., Petrussevska, R.T., Breitkreutz, D., Hornung, J., and Markham, A., “Normal keratinization in a spontaneously immortalized aneuploid human keratinocyte cell line,” J. Cell. Biol., 106, 761-771, 1988], was provided for these studies by the Institute of Dermatology, Szeged University, , Szeged, Hungary). HaCaT cells were maintained in 10% fetal bovine serum (FBS) and 1% penicillin-streptomycin -containing Dulbecco’s modified Eagle’s medium (DMEM) up to 80% confluency in an incubator (5% CO2, 37° C.). Cells were plated into 96 well plates at 20% confluency and incubated for 72 hours in an incubator (5% CO2, 37° C.) with 200 nM purified PLAP or rPLAP in the absence or presence of 100 µM ATP.
(§1) The relative changes in the number of viable cells were determined by the MTT assay. This colorimetric assay is based on the ability of living healthy cells (mostly the mitochondrial compartment), but not dead cells, to reduce 3-(4,5-dimethyl thizaol-2-yl)-[…] to a blue formazan product [Carmichael, J., De Graft, W.G., Gazdar, A.F., Minna, J.D. and Mitchell, J.B. Evaluation of tetrazolium-based semi-automated colorimetric assay: Assessment of chemosensitivity resting. Cancer Res. 47, 936-942, 1987] This technique is a widely used and accepted method to accurately determine the relative numbers of viable cells. For example, this is the official method used by the National Cancer Institute to screen anticancer drugs.
(§2) A MULTISKAN MS microplate reader purchased from Labsystems (Franklin, Massachusetts) was used to measure the formation of formazan as an increase in absorbance at a test wavelength of 540 nm and a reference wavelength of 690 nm. In the data analysis, data were expressed as mean values ± standard deviation (S.D.) of eight incubations (from eight wells) in one experiment. In each case, incubations were performed for 72 hours.

[2] = system: CCD 966 SK fibroblasts; test: MTT assay, proliferation/viability of CCD 966 SK fibroblasts; type: cell-based, human; conditions: 72 hours; for Viability of Cells (Absorption: A540) CCD 966 SK: MTT, 200 nM PLAP or rPLAP, 100 µM ATP, mean ± S.D. of eight wells
Protocol: CCD 966 SK fibroblasts, originally derived from a subject and purchased from American Type Culture Collection (Alexandria, Virginia), were at passage 5 when used. The fibroblasts were maintained and treated as described above for the HaCaT cells.
as §1, §2

[3] = system: shingles; test: Treatment of shingles in human subjects; type: in vivo; conditions: two subjects, recurrent painful shingles, oral, 4-times a day
Protocol: The PLAP cream can be used for the local treatment of Shingles or other skin lesions caused by reactivated HSV-1 or HSV-2 generally, but not always, along with treatment with a prescribed antiviral drug. The same carriers and additives may be used as described for the acne treatment, The recommended amount of PLAP per 1 gram carrier is 2.0 to 10.0 mg. Generally, the larger the lesion the more PLAP per 1 gram carrier is needed. As examples, if the area of the lesion is 10 cm^2 or smaller, 2 mg per 1 gram carrier is suitable. If the area of the lesion is larger than 10 cm^2 then, depending on the lesion’s size, the recommended concentration of PLAP is between 2.1 to 10.0 mg per 1 gram carrier. Local treatment of the lesion with PLAP cream is performed once daily along with oral administration of the prescribed antiviral drug (usually four-times a day). Local administration of the antiviral drug is not recommended. In case of shingles, when the lesion treated with placental alkaline phosphatase or an active derivative is smaller than 2.0 cm^2, the use of an antiviral drug is optional. In cases of skin lesions caused by HSV-1 or HSV-2, the use of an oral antiviral drug is optional regardless of the lesion’s size.
Two individuals (one person and one person) had recurrent painful shingles at 10-16 months intervals, usually lasting for 4-6 weeks without treatment, associated with pain lasting beyond 6 weeks that prevented them to get a good night sleep.
When a new recurrence of shingles occurred again, the same two subjects were co-treated with local PLAP cream (5 mg PLAP in 1-gram Vaselinum cholesterinatum) and oral acyclovir. The two subjects responded to this combination treatment similarly.
They started the treatment with acyclovir and PLAP cream on day 0. […] Complete healing of both subjects occurred by day 12 (the subject) and day 14 (the subject).
Two female individuals, had recurrent (practically yearly) moderate shingles (one had under the breast, the other had on the arm, both approximately the size of 1-2 cm^2) previously lasting for about 2-3 weeks. […]

[4] = system: acne lesion; test: Topical treatment of acne lesions in human subjects; type: in vivo; conditions: for visible effect on acne covered area: person, before PLAP treatment
Text: Highly purified placenta derived PLAP, or essentially pure recombinant PLAP, or an essentially pure active derivative thereof, is dispersed in a suitable carrier and gently massaged onto the acne lesion. The carrier used in the invention is Vaselinum cholesterinatum, but it may be replaced by Vaselinum flavum or Vaselinum album. Vaselinum cholesterinatum consists of about 1.5 wt.-% cholesterol, about 5.0 wt.-% cerae lanae, and about 93.5 wt.-% Vaselinum flavum. In this invention, for a preparation containing PLAP or rPLAP in a carrier the term “PLAP cream” is used.
Other appropriate forms of PLAP containing compositions may contain other suitable carriers in the forms of gels, lotions, unguents, emollients, colloidal dispersions, suspensions, emulsions, oils, sprays, liposomes, non-ionic detergents, foams, mousses, and the like as used in the skin care industry with no damaging effects on the skin. Preferably, the chosen carrier would enable PLAP to exert its antiacne effect or at least would not reduce it. In addition, the carrier should not be comedogenic and should not inhibit interaction of PLAP with the acne lesion. In the preparation of the carrier-PLAP mixture, PLAP is first dissolved in distilled water or a suitable buffer and then mixed with the carrier. The PLAP cream contains highly purified PLAP or rPLAP, in the amount of 0.1 to 10 mg per one gram carrier gently massaged onto the area of acne lesion. The amount of PLAP depends on the severity of acne. In cases of light, moderate and severe acnes the recommended amount of PLAP per 1 gram carrier is 0.1 to 0.5 mg, 0.6 to 2 mg, and 2.1 to 10 mg PLAP, respectively. Before each daily treatment the acne lesion needs to be cleaned with a facial cleanser as recommended by the manufacturer. The length of the daily treatments is typically for about 3 weeks, but it may be extended until the lesion is healed.
Complete recovery of the original skin texture required about 5 weeks with no additional treatments needed between 3 to 5 weeks.
Complete recovery of the original skin texture required about 6 weeks with no additional treatments needed between 3 to 6 weeks.
Complete recovery of the original skin texture required about 8 weeks with no additional treatments needed between 4 to 8 weeks.
This idea was tested with 16-17-year-old males who started to develop acne during a 2 to 4-day period. Treatments (2-mg PLAP in 1-gram Vaselinum cholesterinatum) were applied at bedtime only once.

[5] = system: HaCaT cells; test: [U-14C]ATP hydrolysis and adenosine formation in intact HaCaT cells; type: cell-based, human; conditions: 2 hours
Protocol: (§3) In these experiments, PLAP was incubated with human HaCaT cells and human 966 SK fibroblasts. The plasma membranes of both cell lines contain ectonucleotidases that hydrolyze ATP to result in the formation of adenosine. If PLAP binds ATP as reported earlier, it will compete with the ectonucleotidases for ATP. In this case, in the presence of PLAP the formation of adenosine, the final product of ATP hydrolysis, should be reduced. The experiment performed under this Example served to examine this possibility.
(§4) HaCaT and 966 SK cells were grown in 10% serum containing DMEM medium (0.1 ml) in 96-well plates to confluence. First, the medium was changed for serum-free medium. […] (0.1 mM) of [U-^14C] ATP (purchased from Amersham). Incubations in an incubator were performed for 2 hours. […] aliquots were withdrawn into small centrifuge tubes followed by the addition of 0.15 ml of chloroform methanol 2:1 mixture containing 1 mM adenosine (to help UV visualization and reduce cellular uptake of [U-^14C] Adenosine) to precipitate the proteins and eliminate lipids. After centrifugation, 5 µl aliquots of the lower phase were transferred to fluorescent PEI-cellulose (polyethyleneimine-impregnated cellulose) plates, and after drying the plates they were developed with water in a flat bottom chamber. After drying and visualizing the adenosine and nucleotide spots under UV (all nucleotides remained in the application spots), the respective areas were cut out, placed in scintillation vials, and radioactivity was measured in a liquid scintillation spectrometer. Data is the mean of three independent determinations (from three separate wells) ± S.D. in the same experiment.

[6] = system: CCD 966 SK cells; test: [U-14C]ATP hydrolysis and adenosine formation in intact CCD 966 SK fibroblasts; type: cell-based, human; conditions: 2 hours
Protocol: as §3, §4

[7] = CCD 966 SK fibroblasts, agent alone
[8] = PLAP, 500 nM, 0.1 mM [U-14C]ATP, mean ± S.D. of three wells

With `Nc1ncnc2c1ncn2[C@@H]1O[C@H](COP(=O)(O)OP(=O)(O)OP(=O)(O)O)[C@@H](O)[C@H]1O` [ATP, adenosine 5′ triphosphate, reference compound] the “effect on proliferation (in words)” value ([1]; HaCaT cells, agent alone) was “no effects”, the “Viability of Cells (Absorption: A540) HaCaT cells” value [1] was 0.841±0.037 and the “effect on proliferation (in words)” value [2, 7] was “no effects”. For the same molecule, the “Viability of Cells (Absorption: A540) CCD 966 SK” value [2] was 0.686±0.029.

For `Nc1nc2c(ncn2COCCO)c(=O)[nH]1` [acyclovir], the effect on pain [3] was “no significant effect on pain”, the “time of full healing of shingles” value [3] was “by the end of third week” and the remission of shingles ([3]; in 10-12 days) was 40-50%.

`O=C(OOC(=O)c1ccccc1)c1ccccc1` [benzoyl peroxide] was tested, and the “visible effect on acne covered area” value ([4]; left side of face, as prescribed for 2 months) was “only small visible positive effects”, the “visible effect on acne covered area” value ([4]; left side of face, as prescribed for 3 months) was “only small visible positive effects” and the “visible effect on acne covered area” value ([4]; right side of face, as prescribed for 2 months) was “only small visible positive effects”. The “visible effect on acne covered area” value ([4]; right side of face, as prescribed for 3 months) was “only small visible positive effects”.

B1: PLAP: full length placental alkaline phosphatase, highly purified from commercial PLAP (Sigma-Aldrich) (protein, UniProt P05187 23-506, looked up)
Alkaline phosphatase, …: IIPVEEENPDFWNREAAEALGAAKKLQPAQTAAKNLIIFLGDGMGVSTVTAARILKGQKKDKLGPEIPLAMDRFPYVALSKTYNVDKHVPDSGATATAYLCGVKGNFQTIGLSAAARFNQCNTTRGNEVISVMNRAKKAGKSVGVVTTTRVQHASPAGTYAHTVNRNWYSDADVPASARQEGCQDIATQLISNMDIDVILGGGRKYMFRMGTPDPEYPDDYSQGGTRLDGKNLVQEWLAKRQGARYVWNRTELMQASLDPSVTHLMGLFEPGDMKYEIHRDSTLDPSLMEMTEAALRLLSRNPRGFFLFVEGGRIDHGHHESRAYRALTETIMFDDAIERAGQLTSEEDTLSLVTADHSHVFSFGGYPLRGSSIFGLAPGKARDRKAYTVLLYGNGPGYVLKDGARPDVTESESGSPEYRQQSAVPLDEETHAGEDVAVFARGPQAHLVHGVQEQTFIAHVMAFAACLEPYTACDLAPPAGTTD
For B1, the “formation of radiolabeled adenosine (in words)” value [5] was “dramatic reduction”, the “hydrolysis of ATP and related nucleotides (in words)” value [5] was “greatly reduced the hydrolysis” and the “Total [U-14C] nucleotide” value [5, 8] was 1,572,853 ± 33,737 c.p.m./well. For the same molecule, the “[U-14C] Adenosine” value [5, 8] was 71,048 ± 2,220 c.p.m./well, the “formation of radiolabeled adenosine (in words)” value [6] was “dramatic reduction” and the “hydrolysis of ATP and related nucleotides (in words)” value [6] was “greatly reduced the hydrolysis”. For the same molecule, the “Total [U-14C] nucleotide” value [6, 8] was 1,653,949 ± 42,791 c.p.m./well, the “[U-14C] Adenosine” value [6, 8] was 34,019 ± 4,892 c.p.m./well and the “effect on proliferation (in words)” value ([1]; HaCaT cells, agent alone) was “clearly stimulated proliferation”. For the same molecule, the “Viability of Cells (Absorption: A540) HaCaT cells” value [1] was 1.086± 0.047, the “effect on proliferation (in words)” value ([1]; epidermal (HaCaT) cells, in the presence of ATP) was “inhibited the proliferation” and the “time to complete healing of acne” value ([4]; 16-17-year-old males, acne developing during 2 to 4 days, 2-mg PLAP in 1-gram Vaselinum cholesterinatum, applied once at bedtime) was 2 to 5 days. For the same molecule, the scar tissue formation ([4]; 16-17-year-old males, early acne, 2-mg PLAP in 1-gram carrier, applied once) was “without any scar tissue formation”, the “effect on proliferation (in words)” value [2, 7] was “clearly stimulated proliferation” and the “Viability of Cells (Absorption: A540) CCD 966 SK” value [2] was 0.853±0.040. For the same molecule, the “effect on proliferation (in words)” value ([2]; fibroblasts (CCD 966 SK), in the presence of ATP) was “inhibited the proliferation”.
